Measured values taken from US20190055291A1 (FONDATION THE ARK, published 2019).
Bridge positions count the residues as written; N and C are the ends. Square brackets hold non-standard residues; d marks the D form. R8 = C=CCCCCCC[C@@](C)(N)C(=O)O; S5 = C=CCCC[C@](C)(N)C(=O)O

What was measured:
[1] = biological target: RSV fusion glycoprotein F (trimeric HR1 target) on mCherry-expressing RSV virus (rHRSV-mCherry) (human RSV (rHRSV), strain ); test: cell-based or functional assay
[2] = biological target: RSV fusion glycoprotein F (trimeric HR1 target) on recombinant GFP-expressing RSV virus (strain A2) (RSV (strain A2), UniProt P03420 26-574); test: cell-based or functional assay

Binder | EC50 values [µM], rHRSV-mCherry inhibition assay in HEp-2 cells [1] [µM] | EC50, block of RSV-GFP infection of A549 cells (flow cytometry) [2] [µM]
FDASISQVNEKINQSLAFIRKSDELLHNVNAGKST [T118] | 6.33 | –
Ac-EKINQSL[R8]FIRKSD[S5]LLHNV-NH2 (staple 8-15) [4e] | – | > 90
YDPLVFPSDEFDASISQVNEKINQSLAFIRKSDEL [T108] | – | 20.9
EQSLXFIRXSDXLLHXV (X504, X508, X511 and X515 are (S)-2-(4-pentenyl)alanine (two staples); N-terminus acetylated; C-terminus amidated) [3ac] | – | 15.3
